Test results reported in patent US20030119155A1.

Target: Methanol dehydrogenase (MDH) of Bacillus brevis S1 strain (NCIMB 12524) (Bacillus brevis S1 strain (NCIMB 12524))
Experiment: cell-based or functional assay

- NADH producing rate (increase of absorbance at 340 nm after methanol addition) in cell extract, against the pHY300PLK vector control: 5 times
Substance: Amd (Activator of methanol dehydrogenase), YqkG gene product of Bacillus subtilis 168 strain (from UniProt P54570 1-185)
